Positions count from the first letter of the chain named. Like-named read-outs stand apart in the source and are kept apart here.
How the values were obtained:
[1] = target: T1, full-length Sudan GP (GPFL) (Sudan virus (SUDV), UniProt Q7T9D9 33-650); test: ELISA on coated GP
T1 construct: also called Sudan GPFL; GP(S)FL
T1 sequence: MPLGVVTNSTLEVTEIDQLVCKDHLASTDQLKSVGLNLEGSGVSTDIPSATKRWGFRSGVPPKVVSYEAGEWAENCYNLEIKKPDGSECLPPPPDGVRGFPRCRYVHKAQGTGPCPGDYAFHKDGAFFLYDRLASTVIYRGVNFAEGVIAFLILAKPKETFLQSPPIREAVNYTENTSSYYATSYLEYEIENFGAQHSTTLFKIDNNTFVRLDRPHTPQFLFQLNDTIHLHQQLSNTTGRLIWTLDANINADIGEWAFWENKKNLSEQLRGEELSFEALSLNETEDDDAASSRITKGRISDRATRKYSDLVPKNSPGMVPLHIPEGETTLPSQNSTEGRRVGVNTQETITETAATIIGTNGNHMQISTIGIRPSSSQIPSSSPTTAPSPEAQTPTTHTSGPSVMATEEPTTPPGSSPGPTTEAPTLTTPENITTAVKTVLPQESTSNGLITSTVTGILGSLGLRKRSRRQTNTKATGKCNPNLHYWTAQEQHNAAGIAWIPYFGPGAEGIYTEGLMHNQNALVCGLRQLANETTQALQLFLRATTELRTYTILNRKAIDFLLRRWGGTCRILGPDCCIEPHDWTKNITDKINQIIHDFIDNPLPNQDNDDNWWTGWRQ

[2] = target: T2, full-length Zaire GP (GPFL) (Ebola (Zaire) virus (EBOV), UniProt Q05320 33-632); test: ELISA on coated GP
T2 construct: also called Zaire GPFL; GP(Z)FL
T2 sequence: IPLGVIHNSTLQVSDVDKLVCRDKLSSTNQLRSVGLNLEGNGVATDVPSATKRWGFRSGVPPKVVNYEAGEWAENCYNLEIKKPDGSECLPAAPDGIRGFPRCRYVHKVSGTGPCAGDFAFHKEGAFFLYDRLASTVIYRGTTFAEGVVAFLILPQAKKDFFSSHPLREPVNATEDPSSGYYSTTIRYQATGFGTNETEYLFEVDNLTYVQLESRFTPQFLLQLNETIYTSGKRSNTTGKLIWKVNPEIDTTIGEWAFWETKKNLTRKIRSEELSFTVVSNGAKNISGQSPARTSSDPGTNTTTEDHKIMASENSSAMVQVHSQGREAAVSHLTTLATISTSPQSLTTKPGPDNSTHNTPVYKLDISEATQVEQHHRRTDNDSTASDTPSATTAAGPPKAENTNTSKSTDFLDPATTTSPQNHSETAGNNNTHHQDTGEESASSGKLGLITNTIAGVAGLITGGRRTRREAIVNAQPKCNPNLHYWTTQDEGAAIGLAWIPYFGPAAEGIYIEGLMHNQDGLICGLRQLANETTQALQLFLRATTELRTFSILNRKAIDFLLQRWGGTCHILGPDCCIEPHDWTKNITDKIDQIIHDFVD

[3] = target: T3, SUDV GP on pseudotyped lentiviral vector (Sudan virus (SUDV), UniProt Q7T9D9 33-676); test: cell-based or functional assay
T3 sequence: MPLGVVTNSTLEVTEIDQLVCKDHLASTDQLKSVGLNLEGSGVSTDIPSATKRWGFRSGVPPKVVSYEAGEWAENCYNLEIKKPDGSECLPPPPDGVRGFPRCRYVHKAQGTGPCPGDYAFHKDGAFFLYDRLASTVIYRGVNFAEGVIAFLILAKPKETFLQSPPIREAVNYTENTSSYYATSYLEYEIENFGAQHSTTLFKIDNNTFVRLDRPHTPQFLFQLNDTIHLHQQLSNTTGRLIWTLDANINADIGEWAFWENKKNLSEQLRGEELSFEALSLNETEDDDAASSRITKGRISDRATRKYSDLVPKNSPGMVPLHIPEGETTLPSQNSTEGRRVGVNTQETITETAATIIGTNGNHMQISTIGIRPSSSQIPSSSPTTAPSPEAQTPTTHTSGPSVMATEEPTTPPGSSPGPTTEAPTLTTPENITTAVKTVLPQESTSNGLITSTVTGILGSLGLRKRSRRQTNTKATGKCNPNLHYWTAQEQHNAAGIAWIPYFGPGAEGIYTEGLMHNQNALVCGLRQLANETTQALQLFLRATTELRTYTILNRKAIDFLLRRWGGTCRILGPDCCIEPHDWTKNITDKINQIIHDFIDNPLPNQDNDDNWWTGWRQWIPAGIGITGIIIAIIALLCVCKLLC

[4] = target: T4, EBOV GP on pseudotyped lentiviral vector (Ebola (Zaire) virus (EBOV), UniProt Q05320 33-676); test: cell-based or functional assay
T4 sequence: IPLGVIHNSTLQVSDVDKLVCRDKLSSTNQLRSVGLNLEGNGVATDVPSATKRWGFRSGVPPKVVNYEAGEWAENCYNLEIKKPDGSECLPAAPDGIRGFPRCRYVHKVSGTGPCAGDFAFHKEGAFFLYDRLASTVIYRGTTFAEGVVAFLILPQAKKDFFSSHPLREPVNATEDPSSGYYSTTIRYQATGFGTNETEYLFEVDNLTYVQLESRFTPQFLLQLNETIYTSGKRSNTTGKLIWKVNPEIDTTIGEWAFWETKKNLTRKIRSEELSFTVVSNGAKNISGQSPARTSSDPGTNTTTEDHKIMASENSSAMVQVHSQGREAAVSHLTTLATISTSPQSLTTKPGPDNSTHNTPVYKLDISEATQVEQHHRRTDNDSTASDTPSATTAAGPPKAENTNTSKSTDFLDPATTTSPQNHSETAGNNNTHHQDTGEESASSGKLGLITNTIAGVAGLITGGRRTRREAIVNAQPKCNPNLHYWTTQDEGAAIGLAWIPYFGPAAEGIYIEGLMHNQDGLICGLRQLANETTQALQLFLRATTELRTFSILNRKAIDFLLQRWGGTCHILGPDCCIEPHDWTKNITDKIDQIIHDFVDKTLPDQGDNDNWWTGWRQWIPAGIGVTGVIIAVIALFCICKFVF

[5] = target: T1, full-length Sudan GP (GPFL); test: BLI, Fab, pH 5.3
[6] = target: T1, full-length Sudan GP (GPFL); test: BLI, Fab, pH 7.4
[7] = target: T2, full-length Zaire GP (GPFL); test: BLI, Fab, pH 7.4
[8] = target: T1, full-length Sudan GP (GPFL); test: ELISA on coated GP; remark: listed apart in the source
[9] = target: T3, SUDV GP on pseudotyped lentiviral vector; test: cell-based or functional assay; remark: listed apart in the source
[10] = target: T2, full-length Zaire GP (GPFL); test: ELISA on coated GP; remark: listed apart in the source
[11] = target: T4, EBOV GP on pseudotyped lentiviral vector; test: cell-based or functional assay; remark: listed apart in the source
[12] = target: T1, full-length Sudan GP (GPFL); test: BLI, Fab, pH 5.3; remark: listed apart in the source
[13] = target: T1, full-length Sudan GP (GPFL); test: BLI, Fab, pH 7.4; remark: listed apart in the source

B1: antibody 316L (antibody, V domains shown)
VH: EERLVESGGGLVQPGGSLRLSCAASGFTFGDYAMHWVRQVPGKSLEWLSGISWSGYTTYSADSVKGRFTISRDNAKNSLYLQMNRLRPEDTGLYYCVTLIGAIGIKDSLDVWGRGVLVTVSS
VL: QSVLTQPPSVSGAPGQRVTVSCSGSSSNIGAGNYVQWYQQLPGTAPKVLIYQTEKRPSGTSDRFSGSKSDTSASLTINGLQSEDEADYYCQVYDSNLNGWVFGGGTRLTVLG
notes: also called 316L mAb; mAb 316L
Q: With B1 as the binder, how does the EC50 [1] read?
A: Its EC50 is 0.0175 µg/mL.

Q: What about the EC50 [2] of the same binder?
A: The EC50 was 0.0441 µg/mL.

Q: And the “IC50, microneutralization of GP-pseudotyped lentiviral vector on HEK293 cells” value (from here on “IC50, microneutralization”) [3]?
A: Its value is 0.284 µg/mL.

Q: What about the “IC50, microneutralization” value [4] of the same binder?
A: The value was 1.77 µg/mL.

B2: Fab generated from 316L (Fab, V domains shown)
VH: B1 VH
VL: QSVLTQPPSVSGAPGQRVTVSCSGSSSNIGAGNYVQWYQQLPGTAPKVLIYQTEKRPSGTSDRFSGSKSDTSASLTINGLQSEDEADYYCQVYDSNLNGWVFGGGTRLTVL
notes: also called 316L Fab
Q: With B2 as the binder, how does the Kd [5] read?
A: Its Kd is 1.26 nM.

Q: What about the koff [5] of the same binder?
A: Its koff is 0.000139 s⁻¹.

Q: What about the kon [5] of the same binder?
A: The kon was 110000 M⁻¹ s⁻¹.

Q: What about the Kd [6] of the same binder?
A: The Kd was 1.16 nM.

Q: And the koff [6]?
A: Its koff is 0.000157 s⁻¹.

Q: And the kon [6]?
A: Its kon is 135000 M⁻¹ s⁻¹.

Q: And the Kd [7]?
A: Its Kd is 38.1 nM.

Q: And the koff [7]?
A: The koff was 0.00263 s⁻¹.

Q: And the kon [7]?
A: Its kon is 69000 M⁻¹ s⁻¹.

B3: antibody 380L (antibody, V domains shown)
VH: EVQLVESGGGLVQPGGSLTLSCAASGFTFGDYVMHWVRQVPGRGLEWLSAVSWSGYTTYSADSVKGRFTISRDNAKNSLYLQMSRLGTADTGLYYCVTLIGAIGIRDSFDAWGRGVLVTVSS
VL: B2 VL with V10M, S23T, E54D, T60I, D70G, N78S, N96S
notes: also called 380L mAb; mAb 380L
Q: With B3 as the binder, how does the EC50 [1] read?
A: The EC50 was 0.0195 µg/mL.

Q: And the EC50 [2]?
A: Its EC50 is 0.0398 µg/mL.

Q: And the “IC50, microneutralization” value [3]?
A: Its value is 0.395 µg/mL.

Q: And the “IC50, microneutralization” value [4]?
A: The value was 0.756 µg/mL.

B4: Fab generated from 380L (Fab, V domains shown)
VH: B3 VH
VL: B2 VL with V10M, S23T, E54D, T60I, D70G, N78S, N96S
notes: also called 380L Fab
Q: B4 was tested. Which Kd [5] did it give?
A: The Kd was 3.87 nM.

Q: And the koff [5]?
A: Its koff is 0.000326 s⁻¹.

Q: And the kon [5]?
A: Its kon is 84200 M⁻¹ s⁻¹.

Q: What about the Kd [6] of the same binder?
A: The Kd was 2.85 nM.

Q: What about the koff [6] of the same binder?
A: Its koff is 0.00029 s⁻¹.

Q: What about the kon [6] of the same binder?
A: The kon was 101000 M⁻¹ s⁻¹.

Q: And the Kd [7]?
A: Its Kd is 19.8 nM.

Q: What about the koff [7] of the same binder?
A: Its koff is 0.00148 s⁻¹.

Q: What about the kon [7] of the same binder?
A: Its kon is 63000 M⁻¹ s⁻¹.

B5: antibody 16F6 (antibody, V domains shown)
VH: EVQLVESGGGLVTPGGSLKLSCAASGFAFNYYDMFWVRQNTEKRLEWVAYINSGGGNTYYPDTVKGRFTISRDNAKKTLFLQMSSLRSEDTAMYYCARQLYGNSFFDYWGQGTSLTVSA
VL: DIVMTQSHKFMSTSVGDRVTITCKASQDVTTAVAWYQQKPGHSPKLLIYWASTRHTGVPDRFTGSGSGTDFTLTLNSVQAEDLALYYCQQHYSTPLTFGAGTKLELK
Q: How did the EC50 [1] turn out when B5 was run?
A: Its EC50 is 0.068 µg/mL.

Q: And the EC50 [8]?
A: The EC50 was 0.16 µg/mL.

Q: And the “IC50, microneutralization” value [3]?
A: The value was 0.068 µg/mL.

Q: And the “IC50, microneutralization” value [9]?
A: The value was 0.04 µg/mL.

B6: antibody mAb114 (antibody, V domains shown)
VH: EVQLVESGGGLIQPGGSLRLSCAASGFALRMYDMHWVRQTIDKRLEWVSAVGPSGDTYYADSVKGRFAVSRENAKNSLSLQMNSLTAGDTAIYYCVRSDRGVAGLFDSWGQGILVTVSS
VL: DIQMTQSPSSLSASVGDRITITCRASQAFDNYVAWYQQRPGKVPKLLISAASALHAGVPSRFSGSGSGTHFTLTISSLQPEDVATYYCQNYNSAPLTFGGGTKVEIK
Q: Which results are given for B6?
A: EC50 [2]: 0.0239 µg/mL; EC50 [10]: 0.02 µg/mL; IC50, microneutralization of GP-pseudotyped lentiviral vector on HEK293 cells [4]: 0.152 µg/mL; IC50, microneutralization of GP-pseudotyped lentiviral vector on HEK293 cells [11]: 0.18 µg/mL

B7: Fab generated from 291S (Fab, V domains shown)
VH: QVQLQESGPGLVKPSQTLSLTCTVSGGSFSSGFYWSWIRQRPGKGLEWVGYTYYSGSTYYNPSLQSRVTISVDTSKNQFSLNLSSVTAADTAVYHCARADYGGLFDYWGQGILVTVSS
VL: QSVLTQPSSLSASPGASASLTCTLRSGINVGTYRIFWYQQKPGSPPQFLLRYNSDSDKQQGSGVPSRFSGSKDASANAGILLISGLQSEDEADYYCMIWHTSAWVFGGGTKLTVL
Q: Which Kd [12] does the source give for B7 here?
A: The Kd was 4.27 nM.

Q: What about the koff [12] of the same binder?
A: The koff was 0.00011 s⁻¹.

Q: What about the kon [12] of the same binder?
A: The kon was 25700 M⁻¹ s⁻¹.

Q: What about the Kd [13] of the same binder?
A: The Kd was 2.97 nM.

Q: What about the koff [13] of the same binder?
A: Its koff is 0.000131 s⁻¹.

Q: What about the kon [13] of the same binder?
A: Its kon is 44200 M⁻¹ s⁻¹.

B8: Fab generated from 545S (Fab, V domains shown)
VH: QVQLQESGPGLVKPSQTLSLTCTVSGGSISRAGSYWSWIRQHPGKGLEWIGYISYSGSTYYNPSLESRVTMSLDTSKSQFSLKLSSVTAADTAVYYCAREDRSGFYGLDVWGQGTTVTVSS
VL: B7 VL with S17T, G31D, F36Y, F48Y, N53K, Q59H, E89A, T101S, S102G, L115Q
notes: also called 545S Fab
Q: For B8, which Kd [12] is on record?
A: Its Kd is 1.97 nM.

Q: And the koff [12]?
A: The koff was 0.000147 s⁻¹.

Q: And the kon [12]?
A: Its kon is 74300 M⁻¹ s⁻¹.

Q: And the Kd [13]?
A: The Kd was 1.26 nM.

Q: What about the koff [13] of the same binder?
A: The koff was 0.000125 s⁻¹.

Q: What about the kon [13] of the same binder?
A: The kon was 99200 M⁻¹ s⁻¹.
